Consider 6 molecules from patent US20240301086A1 (APTEVO RESEARCH AND DEVELOPMENT, published 2024).

First the molecules themselves.
T1: Full-length cynomolgus monkey PSMA (TSC308), on cells (cynomolgus monkey, UniProt Q04609 1-750 (human entry))
T1 construct: also called cyno PSMA; CHOK1SV/cynoPSMA
T1 chain: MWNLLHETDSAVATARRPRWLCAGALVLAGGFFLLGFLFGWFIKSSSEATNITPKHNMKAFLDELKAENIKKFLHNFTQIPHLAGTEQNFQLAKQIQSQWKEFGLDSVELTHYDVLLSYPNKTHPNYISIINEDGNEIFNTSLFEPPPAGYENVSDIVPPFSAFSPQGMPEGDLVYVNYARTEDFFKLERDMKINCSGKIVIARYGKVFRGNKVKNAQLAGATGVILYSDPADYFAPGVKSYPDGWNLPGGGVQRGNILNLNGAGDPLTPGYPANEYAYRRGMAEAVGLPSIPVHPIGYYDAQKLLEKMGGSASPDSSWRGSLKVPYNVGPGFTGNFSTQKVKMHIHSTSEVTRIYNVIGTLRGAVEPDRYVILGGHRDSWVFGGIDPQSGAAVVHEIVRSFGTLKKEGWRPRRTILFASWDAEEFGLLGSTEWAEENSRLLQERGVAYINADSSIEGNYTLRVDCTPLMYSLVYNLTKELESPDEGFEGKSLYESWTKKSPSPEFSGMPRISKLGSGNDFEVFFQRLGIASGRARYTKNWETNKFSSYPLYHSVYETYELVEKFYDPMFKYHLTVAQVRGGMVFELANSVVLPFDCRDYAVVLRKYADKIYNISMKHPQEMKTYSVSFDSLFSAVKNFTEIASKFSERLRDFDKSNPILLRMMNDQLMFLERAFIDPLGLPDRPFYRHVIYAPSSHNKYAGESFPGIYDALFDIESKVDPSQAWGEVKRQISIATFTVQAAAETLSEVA

B1: PSMA01019 Anti-PSMA scFv-Fc (Fc fusion)
chain: DVQITQSPSTLSASVGDRVTITCRASKSISKYLAWYQQKPGKAPKLLIHSGSSLESGVPSRFSGSGSGTEFTLTISSLQPDDFATYYCQQHIEYPWTFGQGTKVEIKGGGGSGGGGSGGGGSGGGGSEVQLLESGGGLVQPGGSLRLSCAASGYTFTDYYIHWVRQAPGKGLEWIGSFNPYNDYTSYADSVKGRATLSVDKSKNTAYLQMNSLRAEDTAVYYCARSDGYYDAMDYWGQGTLVTVSSSEPKSSDKTHTCPPCPAPEAAGAPSVFLFPPKPKDTLMISRTPEVTCVVVDVSHEDPEVKFNWYVDGVEVHNAKTKPREEQYNSTYRVVSVLTVLHQDWLNGKEYKCAVSNKALPAPIEKTISKAKGQPREPQVYTLPPSRDELTKNQVSLTCLVKGFYPSDIAVEWESNGQPENNYKTTPPVLDSDGSFFLYSKLTVDKSRWQQGNVFSCSVMHEALHNHYTQKSLSLSPGK
notes: Monospecific, bivalent scFv-Fc, VL-VH
B2: PSMA01023 Anti PSMA scFv-Fc (Fc fusion)
chain: DIQMTQSPSTLSASVGDRVTITCRASKSISKYLAWYQQKPGKAPKLLIHSGSSLESGVPSRFSGSGSGTEFTLTISSLQPDDFATYYCQQHIEYPWTFGQGTKVEIKGGGGSGGGGSGGGGSGGGGSQVQLVQSGAEVKKPGASVKVSCKASGYTFTDYYMHWVRQAPGQGLEWMGYFNPYNDYTRYAQKFQGRVTMTRDTSTSTVYMELSSLRSEDTAVYYCARSDGYYDAMDYWGQGTTVTVSSSEPKSSDKTHTCPPCPAPEAAGAPSVFLFPPKPKDTLMISRTPEVTCVVVDVSHEDPEVKFNWYVDGVEVHNAKTKPREEQYNSTYRVVSVLTVLHQDWLNGKEYKCAVSNKALPAPIEKTISKAKGQPREPQVYTLPPSRDELTKNQVSLTCLVKGFYPSDIAVEWESNGQPENNYKTTPPVLDSDGSFFLYSKLTVDKSRWQQGNVFSCSVMHEALHNHYTQKSLSLSPGK
notes: Monospecific, bivalent scFv-Fc, VL-VH; Contains germlining set G11
B3: PSMA01025 Anti-PSMA scFv-Fc (Fc fusion)
chain: B2 chain with Y177I, R186S
notes: as for B1
B4: PSMA01024 Anti-PSMA scFv-Fc (Fc fusion)
chain: B2 chain with I2V, M4I, Y177I, R186S
notes: as for B1
B5: PSMA01021 Anti-PSMA scFv-Fc (Fc fusion)
chain: B2 chain with I2V, M4I, T203I, V206A, E216D
notes: as for B1
B6: PSMA01012 Anti-PSMA scFv-Fc (Fc fusion)
chain: DIQMTQSPSAMSASVGDRVTITCRASKSISKYLAWFQQKPGKVPKLRIHSGSTLQSGVPSRFSGSGSGTEFTLTISSLQPEDFATYYCQQHIEYPWTFGQGTKVEIKRGGGGSGGGGSGGGGSQVQLVQSGAEVKKPGASVKVSCKASGYTFTDYYMHWVRQAPGQGLEWMGYFNPYNDYTRYAQKFQGRVTMTRDTSISTAYMELSSLRSDDTAVYYCARSDGYYDAMDYWGQGTTVTVSSSEPKSSDKTHTCPPCPAPEAAGAPSVFLFPPKPKDTLMISRTPEVTCVVVDVSHEDPEVKFNWYVDGVEVHNAKTKPREEQYNSTYRVVSVLTVLHQDWLNGKEYKCAVSNKALPAPIEKTISKAKGQPREPQVYTLPPSRDELTKNQVSLTCLVKGFYPSDIAVEWESNGQPENNYKTTPPVLDSDGSFFLYSKLTVDKSRWQQGNVFSCSVMHEALHNHYTQKSLSLSPGK
notes: Monospecific, bivalent scFv-Fc, scFv in VL-VH orientation; also called parent construct

Changes are numbered by the printed parent chain.

The target in the first test is T2, Human PSMA ECD-AFH (TSC033), recombinant dimeric PSMA ECD (human, UniProt Q04609 44-750).
T2 construct: SEC-purified dimer; also called HuPSMA-AFH; Avi-His-Human PSMA ECD
T2 sequence (Q04609 other isoform, or with tags, fused parts or gaps): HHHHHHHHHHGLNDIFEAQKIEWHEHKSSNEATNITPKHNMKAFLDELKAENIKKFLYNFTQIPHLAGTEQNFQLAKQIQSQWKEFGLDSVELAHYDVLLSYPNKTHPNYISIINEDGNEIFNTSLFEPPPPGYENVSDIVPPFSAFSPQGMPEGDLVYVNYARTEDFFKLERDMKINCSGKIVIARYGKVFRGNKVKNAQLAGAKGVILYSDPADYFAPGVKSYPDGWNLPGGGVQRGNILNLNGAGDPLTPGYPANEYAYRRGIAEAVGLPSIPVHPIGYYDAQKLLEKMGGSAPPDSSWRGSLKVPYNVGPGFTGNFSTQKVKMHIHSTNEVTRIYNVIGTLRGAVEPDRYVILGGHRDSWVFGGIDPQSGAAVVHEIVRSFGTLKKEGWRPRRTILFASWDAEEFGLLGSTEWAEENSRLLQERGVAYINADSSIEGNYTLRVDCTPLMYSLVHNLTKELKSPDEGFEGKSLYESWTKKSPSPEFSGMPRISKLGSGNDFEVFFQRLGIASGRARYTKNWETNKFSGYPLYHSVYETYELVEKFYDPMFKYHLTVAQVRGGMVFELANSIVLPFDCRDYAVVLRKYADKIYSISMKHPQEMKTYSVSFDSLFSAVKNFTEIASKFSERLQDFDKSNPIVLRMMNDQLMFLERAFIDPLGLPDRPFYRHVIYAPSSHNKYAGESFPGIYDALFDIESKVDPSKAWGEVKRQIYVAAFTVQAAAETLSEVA
As to the kind of experiment: SPR (Biacore T200), scFv-Fc captured on anti-human IgG, dimeric PSMA ECD as analyte, 1:1 fit. The protocol:
Mouse anti-human IgG (GE, BR-1008-39) at 25 μg/ml in 10 mM sodium acetate pH 5.0 was immobilized at a density of ˜2,000-4,000 response units (RU) onto each flow cell of a CM5 research-grade sensor chip (GE) by standard amine coupling chemistry. Each anti-PSMA protein at approximately 40 nM in dPBS with 0.2% BSA buffer was captured in a flow cell with the immobilized anti-human IgG at a flow rate of […] for up to 30 seconds, leaving one flow cell surface unmodified as the reference. Using a multi-cycle kinetics mode, a buffer blank and […] different concentrations of ECD ranging from 1 nM to 243 nM were sequentially injected through each flow cell at 30 μL/min with association times varying from 300-600 seconds and dissociation times varying from 600-1200 seconds. Regeneration was achieved by injection of 3 M MgCl₂ at a flow rate of 30 μL/min for up to 40 seconds followed by dPBS with 0.2% BSA buffer stabilization for 1 min.
Sensorgrams obtained from kinetic SPR measurements were analyzed using the double subtraction method. The signal from the reference flow cell was subtracted from the analyte binding response obtained from flow cells with captured ligands. The buffer blank response was then subtracted from analyte binding responses and the final double-referenced data were analyzed with Biacore T200 Evaluation software (2.0, GE), globally fitting data to derive kinetic parameters. All sensorgrams were fitted using a simple one-to-one binding model.
Background: SPR reads the build-up and loss of mass on a sensor chip optically.
The Kd is the concentration at which binding is half-saturated. As a reminder, the koff is the rate constant with which the complex falls apart. One may read the kon as a measure of how fast the partners come together. Regarding B1, the Kd turned out to be 15 nM, the koff was found to be 0.00019 s⁻¹ and the kon came out at 13000 M⁻¹ s⁻¹.
For the molecule B2, the Kd is 40 nM, the koff came to 0.00018 s⁻¹ and the kon was 4500 M⁻¹ s⁻¹.
In the case of B3, the Kd stood at 271 nM, the koff turned out to be 0.011 s⁻¹ and the kon amounted to 40000 M⁻¹ s⁻¹.
For B4 the same measures were 299 nM, 0.0026 s⁻¹ and 8500 M⁻¹ s⁻¹.
The like results for B5 were, in that order, 18 nM, 0.00017 s⁻¹ and 9400 M⁻¹ s⁻¹.
Regarding B6, the Kd was determined as 40 nM, the koff was found to be 0.0011 s⁻¹ and the kon was found to be 27000 M⁻¹ s⁻¹.

The target in the next test is T3, Full-length Human PSMA (TSC435), on cells (human, UniProt Q04609 1-750).
T3 construct: also called CHOK1SV/huPSMA; PSMA on C4-2B, 22RV1, LNCaP, MDA-PCa-2b cells
In words: cell binding on CHOK1SV/humanPSMA transfectants, MSD electrochemiluminescence (ECL), SULFO-TAG goat anti-human IgG. The protocol: (§1) To measure the relative binding activity of humanized PSMA-binding domain variants, constructs were tested in cell binding assays on CHOK1SV cells transfected with human or cynomolgus PSMA. The generation of CHOK1SV/huPSMA cells was described earlier; CHOK1SV/cynoPSMA cells were generated using the same method. Bivalent PSMA-binding domains variants in scFv-Fc format (constructs PSMA01019, PSMA01020, PSMA01021, PSMA01023, PSMA01024 and PSMA01025) were tested in these assays.
(§2) Binding studies on CHOK1SV transfectants were performed in live cell-based ELISA using electrochemiluminescence (Meso Scale Discovery). CHOK1SV cells were washed and seeded at 50,000 cells/well in 1× Hank's Balanced Salt Solution (HBSS) on 96-well Multi-Array High Bind plates (Meso Scale Discovery) and incubated at 37° C. for one hour. Following a blocking step in PBS buffer with 20% FBS, serial dilutions of PSMA-binding constructs (from 0.002 to 100 nM) were added in PBS buffer with 10% FBS and incubated at room temperature for one hour. Plates were washed with PBS and the specific binding levels were detected by SULFO TAG-labeled goat anti-human IgG antibody (Meso Scale Discovery #R32AJ). Following an hour incubation and wash steps, 150 μL/well surfactant free 1× Read Buffer T were added and samples were analyzed on MSD Sector Imager (Meso Scale Discovery). Resulting electrochemiluminescence (ECL) values versus concentrations were plotted and nonlinear regression analysis to determine EC50 values was performed in GraphPad Prism 7® graphing and statistics software.
Usually EC50 stands for the concentration giving half of the maximal effect. Regarding B1, the EC50 was 4 nM.
Regarding B2, the EC50 amounted to 1 nM.
For B3, a half-maximal effect (EC50) was put at 11 nM.
In turn, B4 showed an EC50 of 12 nM.
B5: a half-maximal effect (EC50) was put at 2 nM.
Same read-out and setting: to B6 belongs 6 nM.

The next test deals with T1, Full-length cynomolgus monkey PSMA …. As to the kind of experiment: cell binding on CHOK1SV/cynoPSMA transfectants, MSD electrochemiluminescence (ECL), SULFO-TAG goat anti-human IgG. The protocol: as §1, §2
For B1, the response was half-maximal at 8 nM (EC50).
Same read-out and setting: to B2 belongs 5 nM; to B3, 10 nM; to B4, 9 nM.
The same measure, in the same setting: with B5 the figure was 6 nM; with B6, 8 nM.
